B1: Zinc finger homeobox protein 4, residues 2086 to 2141; numbered along this chain, Q86UP3 (parent)
chain: RPRTRITDDQLKILRAYFDINNSPSEEQIQEMAEKSGLSQKVIKHWFRNTLFKERQ

Variants of: B1
Assay: abundance fitness (aPCA) (normalised: wild type 0, dead -1); higher = more abundant; growth selection in yeast, the domain comes from the species named
Conditions: Homo sapiens

Abundance fitness: each site, then its substitutions
E31: S -0.074; I -0.09; G -0.106; P -0.316; W -0.26; Q -0.005; Y -0.162
E27: R -0.02; M 0.082; S -0.105; A 0.076; V -0.071; H -0.59; Y -0.391; D -0.18; L -0.194; W 0.021; T -0.185; G -0.033; P -0.24; I -0.261; N 0.129; Q 0.142; K -0.054
L14: D -1.19; T -1.01; S -1.02; W -0.777; Q -0.866; V -0.273; Y -1.22; N -1.18; E -1; C -0.671; A -0.865; H -1; K -1.16; F -0.304; R -0.949; I -0.439
E26: G -0.154; A -0.027; M -0.032; Y 0.048; R 0.021; T 0.133; C -0.211; W -0.322; F 0.111; P -0.032; Q -0.003; S -0.076; V -0.056; L -0.015; D -0.069; K 0.039
Q30: W -0.349; F -0.441; T -0.025; N -0.08; A -0.019; L 0.031; D -0.495; C -0.275; E -0.154; G -0.116; I 0.196; S -0.159; K 0.146; H -0.072
Y17: V -0.204; D -0.16; T -0.058; N 0.041; S -0.227; H -0.045; P -0.963; R -0.114; A -0.16; G -0.075; M 0.076; C -0.192; Q -0.089; L -0.159; F 0.025; W -0.299; I -0.155
D19: V -0.071; P -0.149; Q 0.029; M -0.033; E 0.054; K 0.082; L 0.086; T -0.104; R -0.009; G -0.089; F -0.196; N 0.07; C -0.072; A 0.011; S 0.142; I -0.061; Y -0.001; H -0.333
N22: H -0.359; C -0.178; G 0.014; V 0.05; P 0.201; R 0.071; D -0.182; I 0.204; S 0.281
S23: N -0.004; A 0.041; K -0.009; H 0.187; R -0.127; T -0.071; E 0.089; Q -0.011; V -0.052; C -0.004; P -0.003; I -0.522; D -0.131; L -0.07; W -0.176; M -0.019; G -0.211
I13: K -0.062; E -0.17; H -0.333; L -0.08; A -0.372; M -0.057; P -0.612; S -0.218; V -0.027; R -0.223; Y -0.027; D -0.289; Q 0.026; T 0.043; G -0.347; W -0.136; F -0.13
M32: C -0.154; H -0.686; I -0.244; G -0.672; A -0.55; S -0.564; K -0.923; D -1.37; R -0.911; F -0.547; T -0.706; P -1.2; V -0.276; N -1; E -1.01; Q -0.837
S25: F -0.468; Y -0.471; P -0.26

— the Human Domainome abundance scans (Beltran et al. 2025)
